The target in the assay is patched (receptor for Shh), on patched-transfected EBNA-293 cells. Description: FACS competition with Shh-Ig on patched-transfected EBNA-293 cells.
Chain of patched (receptor for Shh), on patched-transfected EBNA-293 cells (A3KBI9 whole entry): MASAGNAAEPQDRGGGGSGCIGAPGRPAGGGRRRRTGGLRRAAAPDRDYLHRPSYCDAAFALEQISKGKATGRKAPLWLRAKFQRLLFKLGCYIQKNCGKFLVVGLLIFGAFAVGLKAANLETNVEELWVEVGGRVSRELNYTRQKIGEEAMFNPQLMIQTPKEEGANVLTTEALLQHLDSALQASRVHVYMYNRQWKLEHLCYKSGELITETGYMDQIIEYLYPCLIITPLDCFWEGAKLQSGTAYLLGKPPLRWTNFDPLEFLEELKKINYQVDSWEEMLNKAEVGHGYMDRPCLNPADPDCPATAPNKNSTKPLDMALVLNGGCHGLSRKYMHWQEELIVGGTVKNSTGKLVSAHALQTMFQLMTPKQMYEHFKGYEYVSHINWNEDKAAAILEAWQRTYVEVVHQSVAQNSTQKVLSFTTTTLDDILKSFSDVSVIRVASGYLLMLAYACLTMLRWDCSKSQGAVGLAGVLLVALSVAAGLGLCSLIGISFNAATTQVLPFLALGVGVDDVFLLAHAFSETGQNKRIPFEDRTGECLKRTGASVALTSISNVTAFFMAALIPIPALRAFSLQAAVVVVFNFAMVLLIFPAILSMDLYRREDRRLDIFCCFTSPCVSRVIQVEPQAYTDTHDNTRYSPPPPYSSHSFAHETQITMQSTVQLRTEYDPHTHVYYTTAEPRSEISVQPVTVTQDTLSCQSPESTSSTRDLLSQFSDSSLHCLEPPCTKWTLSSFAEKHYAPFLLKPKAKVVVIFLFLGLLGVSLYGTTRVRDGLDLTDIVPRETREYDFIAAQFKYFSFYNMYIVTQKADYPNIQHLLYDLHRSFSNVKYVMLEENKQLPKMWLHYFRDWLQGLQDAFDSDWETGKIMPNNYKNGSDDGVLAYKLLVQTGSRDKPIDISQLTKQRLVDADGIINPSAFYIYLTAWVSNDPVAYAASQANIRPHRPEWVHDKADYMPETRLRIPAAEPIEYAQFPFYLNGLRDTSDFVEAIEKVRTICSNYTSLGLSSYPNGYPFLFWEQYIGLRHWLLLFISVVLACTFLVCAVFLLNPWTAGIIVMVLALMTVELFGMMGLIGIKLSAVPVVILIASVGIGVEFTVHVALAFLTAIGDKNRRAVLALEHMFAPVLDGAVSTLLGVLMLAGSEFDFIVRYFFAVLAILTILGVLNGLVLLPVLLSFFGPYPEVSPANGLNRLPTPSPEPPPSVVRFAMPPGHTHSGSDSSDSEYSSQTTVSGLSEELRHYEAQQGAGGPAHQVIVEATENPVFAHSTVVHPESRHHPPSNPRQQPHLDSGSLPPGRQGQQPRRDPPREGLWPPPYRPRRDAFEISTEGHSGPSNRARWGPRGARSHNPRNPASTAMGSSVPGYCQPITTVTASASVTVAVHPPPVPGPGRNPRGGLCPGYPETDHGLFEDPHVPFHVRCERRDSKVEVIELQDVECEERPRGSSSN

With “soluble human Sonic hedgehog N-terminal fragment (unmodified, Cys-1 to Gly-174, produced in E. coli) (from UniProt Q14623 28-201) (ligand)”, the IC50 (usually the point on the concentration scale where inhibition reaches its midpoint) came to 0.15 µg/mL.

Consider “tethered human Sonic hedgehog (N-terminal fragment with a palmitoyl group at the N-terminus and cholesterol at the C-terminus, purified from High Five insect cells) (from UniProt Q14623 28-201) (ligand)”, for which the IC50 stood at 0.4 µg/mL.

The record behind these values is US6444793.
